Reference: publication PMC6224509 (Nature Communications, 2018)

B1: urelumab (fully human IgG4 mAb) (antibody, V domains shown)
VH: QVQLQQWGAGLLKPSETLSLTCAVYGGSFSGYYWSWIRQSPEKGLEWIGEINHGGYVTYNPSLESRVTISVDTSKNQFSLKLSSVTAADTAVYYCARDYGPGNYDWYFDLWGRGTLVTVSS
VL: EIVLTQSPATLSLSPGERATLSCRASQSVSSYLAWYQQKPGQAPRLLIYDASNRATGIPARFSGSGSGTDFTLTISSLEPEDFAVYYCQQRSNWPPALTFGGGTKVEIK
B2: urelumab Fab (Fab, V domains shown)
VH: B1 VH
VL: B1 VL
notes: urelumab heavy chain Fab region; urelumab kappa light chain (captured on an anti-human kappa surface); also called BMS-663513 (Fab); URE-Fab

Tests used:
[1] = target: T1, human 4-1BB residues 24–186, wild type, His–Avi (human, UniProt Q07011); experiment: cell-based or functional assay
T1 sequence (Q07011 24-186): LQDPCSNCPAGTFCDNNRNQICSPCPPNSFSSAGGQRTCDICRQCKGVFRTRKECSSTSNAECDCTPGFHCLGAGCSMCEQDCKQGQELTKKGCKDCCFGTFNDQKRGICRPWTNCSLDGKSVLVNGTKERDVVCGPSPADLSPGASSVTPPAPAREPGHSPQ

[2] = target: T1, human 4-1BB residues 24–186, wild type, …; experiment: SPR; binding kinetics and affinities, monovalent binding of utomilumab and urelumab to wild type and mutant h4-1BB (Supplementary Figure 8); who was immobilised is not given in the source; conditions: both partners purified
[3] = target: T2, human 4-1BB residues 24–186 M101R, His–Avi (Homo sapiens, UniProt Q07011, M101R); experiment: as above; conditions: both partners purified
T2 construct: human 4-1BB (CD137, TNFRSF9), residues 24-186, M101R; source: HEK cells, transfected, secreted, purified (NiExcel, Superdex 200); not shown: His8, C-terminal, kept
T2 sequence (Q07011 24-186 M101R): as the sequence (Q07011 24-186) above, with M78R counted along it

[4] = target: T3, human 4-1BB residues 24–186 I132R, His–Avi (Homo sapiens, UniProt Q07011, I132R); experiment: as above; conditions: both partners purified
T3 construct: human 4-1BB (CD137, TNFRSF9), residues 24-186, I132R; source: HEK cells, transfected, secreted, purified (NiExcel, Superdex 200); not shown: His8, C-terminal, kept
T3 sequence (Q07011 24-186 I132R): as the sequence (Q07011 24-186) above, with I109R counted along it

Binder | NF-ĸB luciferase reporter in h4-1BB-expressing HEK293 cells, fold induction over unstimulated cells, cross-linked by Pfeiffer cells (FcγRIIB), max 250 nM [1] [fold] | NF-ĸB luciferase reporter in h4-1BB-expressing HEK293 cells, fold induction over unstimulated cells, no cross-linking, max 250 nM [1] [fold] | Kd [2] [nM] | Kd [3] [nM] | Kd [4] [nM]
B1 | 2.24 | 1.99 | – | – | –
B2 | – | – | 22 | 16 | 18
